Results taken from patent EP4711384A1 (WIO Bioscience Co., Ltd., dated 2026).
Where “and” joins values, the source holds several entries; their conditions need not be identical. Equal entries are not always repeated.

T1: human IL-18R1 and IL-18RAP on IL-18 Reporter HEK 293 Cells (human, UniProt Q13478 19-541; O95256 20-599)
T1 sequence (looked up) 1: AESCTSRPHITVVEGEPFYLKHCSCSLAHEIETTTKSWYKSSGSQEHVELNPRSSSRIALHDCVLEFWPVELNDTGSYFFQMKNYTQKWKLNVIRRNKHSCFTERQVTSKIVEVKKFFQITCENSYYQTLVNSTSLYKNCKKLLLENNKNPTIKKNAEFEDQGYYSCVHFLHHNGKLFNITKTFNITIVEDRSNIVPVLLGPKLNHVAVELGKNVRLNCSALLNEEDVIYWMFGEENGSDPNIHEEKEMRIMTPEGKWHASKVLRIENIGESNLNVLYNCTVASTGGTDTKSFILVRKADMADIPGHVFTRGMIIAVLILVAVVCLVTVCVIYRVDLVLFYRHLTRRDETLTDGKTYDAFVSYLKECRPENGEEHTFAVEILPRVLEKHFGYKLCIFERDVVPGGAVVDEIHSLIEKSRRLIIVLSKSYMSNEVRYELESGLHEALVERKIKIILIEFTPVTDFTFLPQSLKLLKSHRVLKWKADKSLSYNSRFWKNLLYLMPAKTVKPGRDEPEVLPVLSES
T1 sequence (looked up) 2: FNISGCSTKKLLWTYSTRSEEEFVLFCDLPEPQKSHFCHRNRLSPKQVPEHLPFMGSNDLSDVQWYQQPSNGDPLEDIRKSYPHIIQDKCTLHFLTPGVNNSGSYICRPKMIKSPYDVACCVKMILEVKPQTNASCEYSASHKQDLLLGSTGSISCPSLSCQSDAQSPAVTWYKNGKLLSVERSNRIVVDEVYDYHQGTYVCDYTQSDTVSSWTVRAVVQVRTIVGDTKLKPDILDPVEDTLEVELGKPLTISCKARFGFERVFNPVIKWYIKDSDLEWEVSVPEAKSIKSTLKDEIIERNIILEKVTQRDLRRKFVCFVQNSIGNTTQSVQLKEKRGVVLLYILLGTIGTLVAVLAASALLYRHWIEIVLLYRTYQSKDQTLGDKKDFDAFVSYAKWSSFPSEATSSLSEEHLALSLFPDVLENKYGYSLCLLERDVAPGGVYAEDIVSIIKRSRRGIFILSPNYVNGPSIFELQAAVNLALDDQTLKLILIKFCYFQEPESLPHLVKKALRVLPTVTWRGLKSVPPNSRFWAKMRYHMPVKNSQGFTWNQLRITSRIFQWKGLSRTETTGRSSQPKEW

T2: human IL-18R1 ECD-His (human) (UniProt Q13478)
T2 sequence: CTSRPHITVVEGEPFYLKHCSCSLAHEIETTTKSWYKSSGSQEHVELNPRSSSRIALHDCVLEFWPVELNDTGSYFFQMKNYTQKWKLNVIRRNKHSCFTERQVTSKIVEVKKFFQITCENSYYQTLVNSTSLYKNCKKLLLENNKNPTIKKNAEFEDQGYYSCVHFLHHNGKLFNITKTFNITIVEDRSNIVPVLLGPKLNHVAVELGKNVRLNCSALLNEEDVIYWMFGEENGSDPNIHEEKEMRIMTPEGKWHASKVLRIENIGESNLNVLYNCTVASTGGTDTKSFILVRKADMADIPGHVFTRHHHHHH

B1: Wio-02-29 (Rap-A10-GGGGS-R1-A12) (bispecific antibody)
chain: QVQLQESGGGLVQAGGSLKLSCAASGYTYGPYCMGWFRQFPGKEREGVAAVGGDGRTWYGNSVKGRFTISQDNAKKTLYLQINALKPEDTAMYYCAADFDRTVCSDDIYDYTYRGQGTQVTVSSGGGGSQVQLQESGGGPVQAGGSLRLSCSASTTAYDNACMGWFRQAPGKEREGVASIHLRDRTYYADSVKGRFTLSRDGASKTLYLQMNSLKPEDSGTYYCASSNICNGLNLQGNTYWGQGTQVTVSS
B2: Wio-02-23 (R1-F9-GGGGS-Rap-C10) (bispecific antibody)
chain: QVQLQESGGGSVQAGETLRLSCTASGFTVHDMGWYRQAPGNECELVSTISSDGSTYYADSVKGRFTISQDNAKNTVYLQMNSLKPEDTAVYYCAADHFTGLQLAECKADFGYWGQGTQVTVSSGGGGSQVQLQESGGGSVQPGGSLRLSCAASGFTYIPAYMGWFRQAPGKERERVASISSTDGSTTYADSVKGRFTVSQDTAKNTLYLQMNSLKPEDTAMYYCAAYQFGAFRVWGQGTQVTVSS
B3: Wio-02-30 (Rap-C10-GGGGS-R1-C10) (bispecific antibody)
chain: QVQLQESGGGSVQPGGSLRLSCAASGFTYIPAYMGWFRQAPGKERERVASISSTDGSTTYADSVKGRFTVSQDTAKNTLYLQMNSLKPEDTAMYYCAAYQFGAFRVWGQGTQVTVSSGGGGSQVQLQESGGGSVQAGETLRLSCTASGSTFDEYDMGWYRQAPGNKCELVSTISTIDGSTYYADSVKGRFTISQDNTKNTVYLQMNSLKPEDTGVYYCEADDRGTWDRGGCWGQGTQVTVSS
B4: Wio-02-05 (R1-C7-GGGGS-Rap-C10) (bispecific antibody)
chain: QVQLQESGGGPVQAEGSLRLSCTASGNLYRDPCMGWFRQAPGKDREGVAAMNTGADSTFYARSVKGRFTISHDNAKNTLYLQMNSVKPEDTAMYYCAASRYCTERTWTWRYDYDYWGQGTQVTVSSGGGGSQVQLQESGGGSVQPGGSLRLSCAASGFTYIPAYMGWFRQAPGKERERVASISSTDGSTTYADSVKGRFTVSQDTAKNTLYLQMNSLKPEDTAMYYCAAYQFGAFRVWGQGTQVTVSS
B5: Wio-02-44 (Rap-A10-GGGGS-R1-E12) (bispecific antibody)
chain: QVQLQESGGGLVQAGGSLKLSCAASGYTYGPYCMGWFRQFPGKEREGVAAVGGDGRTWYGNSVKGRFTISQDNAKKTLYLQINALKPEDTAMYYCAADFDRTVCSDDIYDYTYRGQGTQVTVSSGGGGSQVQLQESGGGSVQAGGSLRLSCVASGTTMSMNYMAWFRQAPGKEREGVASIFRSTHYADSVKGRFTIAEDSAKNTVYLQMNSLKPEDTAVYYCAAGRTKPYLTPLAESQYNYWGQGIQVTVSS
B6: Wio-02-03 (R1-C7-GGGGS-Rap-F11) (bispecific antibody)
chain: QVQLQESGGGPVQAEGSLRLSCTASGNLYRDPCMGWFRQAPGKDREGVAAMNTGADSTFYARSVKGRFTISHDNAKNTLYLQMNSVKPEDTAMYYCAASRYCTERTWTWRYDYDYWGQGTQVTVSSGSQVQLQESGGGSVQPGGSLRLSCAASGFTYIPAYMGWFRQAPGKERERVASIKTDGSTTYADSVNGRFTIAQDTAKNTLYLQMDSLKPEDTAMYYCAAYQFGAFRVWGQGTQVTVSS
B7: Wio-02-31 (Rap-C10-GGGGS-R1-F9) (bispecific antibody)
chain: QVQLQESGGGSVQPGGSLRLSCAASGFTYIPAYMGWFRQAPGKERERVASISSTDGSTTYADSVKGRFTVSQDTAKNTLYLQMNSLKPEDTAMYYCAAYQFGAFRVWGQGTQVTVSSGGGGSQVQLQESGGGSVQAGETLRLSCTASGFTVHDMGWYRQAPGNECELVSTISSDGSTYYADSVKGRFTISQDNAKNTVYLQMNSLKPEDTAVYYCAADHFTGLQLAECKADFGYWGQGTQVTVSS

Tests used:
[1] = target: T1, human IL-18R1 and IL-18RAP on IL-18 …; assay: cell-based or functional assay
[2] = target: T2, human IL-18R1 ECD-His (human); assay: sandwich ELISA, IL-18RAP ECD-hFc detection

SEAP reporter OD, supernatant 5X [1] | SEAP reporter OD, supernatant 25X [1] | ELISA OD [2] | Binder
1.51 | 1.23 | 2.05 and 2.04 | B1
1.78 | 1.9 | 1.73 and 1.83 | B2
1.59 | 1.18 | 2.16 and 2.29 | B3
1.97 | 1.86 | 1.88 and 1.9 | B4
1.31 | 1.37 | 1.87 and 1.94 | B5
1.39 | 0.608 | 1.74 and 1.85 | B6
1.66 | 1.77 | 2.17 and 2.18 | B7
